T1: CEACAM1 (Sino Biological) (human, UniProt P13688 35-428, limits assumed)
T1 construct: may be the same as CEACAM1-HIS; also called hCEACAM1; biotinylated soluble CEACAM1
T1 sequence: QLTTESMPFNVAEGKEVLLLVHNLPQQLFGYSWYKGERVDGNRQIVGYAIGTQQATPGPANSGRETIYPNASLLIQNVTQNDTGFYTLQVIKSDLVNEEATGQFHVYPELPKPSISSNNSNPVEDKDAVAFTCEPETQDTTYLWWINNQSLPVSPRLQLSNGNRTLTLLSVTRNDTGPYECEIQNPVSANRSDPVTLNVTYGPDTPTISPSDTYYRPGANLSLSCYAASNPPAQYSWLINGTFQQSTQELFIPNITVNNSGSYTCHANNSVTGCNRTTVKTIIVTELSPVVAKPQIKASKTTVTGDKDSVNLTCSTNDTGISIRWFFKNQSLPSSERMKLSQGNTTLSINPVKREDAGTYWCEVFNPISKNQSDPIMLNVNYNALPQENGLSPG


target: T1, CEACAM1 (Sino Biological); experiment: SPR single-cycle
Method: To assess the binding of the humanized affinity matured IgGs, single cycle kinetics analysis was performed on crude supernatants using a Biacore T200 running Biacore T200 Control Software V2.0.1 and Biacore T200 Evaluation Software V3.0 (Uppsala, Sweden). Antibodies were diluted in HBS-P+ (GE Healthcare) to a final concentration of […]. At the start of each cycle, antibodies were loaded onto Fc2, Fc3 and Fc4 of the Protein A chip (GE Healthcare). IgGs were captured at a flow rate of 10 μl/min to give an immobilization level (RL) of ˜100 RU (a level calculated to obtain an Rmax of ˜50-150 RU once the analyte is bound). The surface was then allowed to stabilize. Single cycle kinetics data was obtained with CEACAM1 as the analyte at a flow rate of […] to minimize any potential mass transfer effects. Multiple repeats with the parent (VH2 N56Q/Vκ4 S27(f)A) antibody were performed to check the stability of the surface and analyte over the kinetic cycles. The signal from the reference channel Fc1 (no antibody) was subtracted from that of Fc2, Fc3 and Fc4 to correct for differences in non-specific binding to the reference surface. A three point, two-fold dilution range from 25 nM to 100 nM CEACAM 1 without regeneration between each concentration was used. The signal from each antibody blank run (no CEACAM1) was subtracted to correct for differences in surface stability. The association phase for the three injections of increasing concentrations of CEACAM1 was monitored for 200 seconds each time and a single dissociation phase was measured for 300 seconds following the last injection of CEACAM1. Regeneration of the Protein A surface was conducted using two injections of 10 mM glycine-HCL pH 1.5 followed by a stabilization period of 240 seconds.

Kd	fold better than Parent (KD)	Binder
99 nM	1.61 fold	He3/L4 #1 (antibody, IgG4, V domains shown, IgG4 S241P, kappa) VH: EVQLLESGGGLVQPGGSLRLSCAASGFSFSDYYLYWVRQAPGKGLEWVATISVGGGQTSYADSVKGRFTISRDNSKNTLYLQMNSLRAEDTAMYYCTRALTYGPAWLAYWGQGTLVTVSS VL: DIVMTQSPDSLAVSLGERATINCKSSQSLLNSANQKNYLAWYQQKPGQPPKLLIYFASTRESGVPDRFSGSGSGTDFTLTISSLQAEDVAVYYCQSHFPYYYTFGGGTKVEIK
72 nM	2.22 fold	He3/L16 (antibody, IgG4, V domains shown, IgG4 S241P, kappa) VH: EVQLLESGGGLVQPGGSLRLSCAASGFSFSDYYLYWVRQAPGKGLEWVATISVGGGQTSYADSVKGRFTISRDNSKNTLYLQMNSLRAEDTAMYYCTRALTYGPAWLAYWGQGTLVTVSS VL: DIVMTQSPDSLAVSLGERATINCKSSQSLLNSANQKNYLAWYQQKPGQPPKLLIYFASTRESGVPDRFSGSGSGTDFTLTISSLQAEDVAVYYCQSHYPYPFTFGGGTKVEIK
95 nM	1.68 fold	He3/L5 (antibody, IgG4, V domains shown, IgG4 S241P, kappa) VH: EVQLLESGGGLVQPGGSLRLSCAASGFSFSDYYLYWVRQAPGKGLEWVATISVGGGQTSYADSVKGRFTISRDNSKNTLYLQMNSLRAEDTAMYYCTRALTYGPAWLAYWGQGTLVTVSS VL: DIVMTQSPDSLAVSLGERATINCKSSQSLLNSANQKNYLAWYQQKPGQPPKLLIYFASTRESGVPDRFSGSGSGTDFTLTISSLQAEDVAVYYCQSHYPFAFTFGGGTKVEIK
93 nM	1.72 fold	He3/L6 (antibody, IgG4, V domains shown, IgG4 S241P, kappa) VH: EVQLLESGGGLVQPGGSLRLSCAASGFSFSDYYLYWVRQAPGKGLEWVATISVGGGQTSYADSVKGRFTISRDNSKNTLYLQMNSLRAEDTAMYYCTRALTYGPAWLAYWGQGTLVTVSS VL: DIVMTQSPDSLAVSLGERATINCKSSQSLLNSANQKNYLAWYQQKPGQPPKLLIYFASTRESGVPDRFSGSGSGTDFTLTISSLQAEDVAVYYCQSHYPFSFTFGGGTKVEIK
130 nM	4.24 fold	He3/L4#2 (antibody, IgG4, V domains shown, IgG4 S241P, kappa) VH: EVQLLESGGGLVQPGGSLRLSCAASGFSFSDYYLYWVRQAPGKGLEWVATISVGGGQTSYADSVKGRFTISRDNSKNTLYLQMNSLRAEDTAMYYCTRALTYGPAWLAYWGQGTLVTVSS VL: DIVMTQSPDSLAVSLGERATINCKSSQSLLNSANQKNYLAWYQQKPGQPPKLLIYFASTRESGVPDRFSGSGSGTDFTLTISSLQAEDVAVYYCQSHYPYPYTFGGGTKVEIK
135 nM	1.18 fold	He3/L19 (antibody, IgG4, V domains shown, IgG4 S241P, kappa) VH: EVQLLESGGGLVQPGGSLRLSCAASGFSFSDYYLYWVRQAPGKGLEWVATISVGGGQTSYADSVKGRFTISRDNSKNTLYLQMNSLRAEDTAMYYCTRALTYGPAWLAYWGQGTLVTVSS VL: DIVMTQSPDSLAVSLGERATINCKSSQSLLNSANQKNYLAWYQQKPGQPPKLLIYFASTRESGVPDRFSGSGSGTDFTLTISSLQAEDVAVYYCQSHIYPNFTFGGGTKVEIK
83 nM	1.91 fold	He3/L17 (antibody, IgG4, V domains shown, IgG4 S241P, kappa) VH: EVQLLESGGGLVQPGGSLRLSCAASGFSFSDYYLYWVRQAPGKGLEWVATISVGGGQTSYADSVKGRFTISRDNSKNTLYLQMNSLRAEDTAMYYCTRALTYGPAWLAYWGQGTLVTVSS VL: DIVMTQSPDSLAVSLGERATINCKSSQSLLNSANQKNYLAWYQQKPGQPPKLLIYFASTRESGVPDRFSGSGSGTDFTLTISSLQAEDVAVYYCQSHYPYPYTFGGGTKVEIK
82 nM	1.94 fold	He3/L18 (antibody, IgG4, V domains shown, IgG4 S241P, kappa) VH: EVQLLESGGGLVQPGGSLRLSCAASGFSFSDYYLYWVRQAPGKGLEWVATISVGGGQTSYADSVKGRFTISRDNSKNTLYLQMNSLRAEDTAMYYCTRALTYGPAWLAYWGQGTLVTVSS VL: DIVMTQSPDSLAVSLGERATINCKSSQSLLNSANQKNYLAWYQQKPGQPPKLLIYFASTRESGVPDRFSGSGSGTDFTLTISSLQAEDVAVYYCQSHFPYPFTFGGGTKVEIK

— patent US20250388666A1 (BRIGHAM AND WOMEN S HOSPITAL, published 2025)
